Target: ASF1 (Homo sapiens, UniProt Q9Y294)
Sequence (Q9Y294 whole entry): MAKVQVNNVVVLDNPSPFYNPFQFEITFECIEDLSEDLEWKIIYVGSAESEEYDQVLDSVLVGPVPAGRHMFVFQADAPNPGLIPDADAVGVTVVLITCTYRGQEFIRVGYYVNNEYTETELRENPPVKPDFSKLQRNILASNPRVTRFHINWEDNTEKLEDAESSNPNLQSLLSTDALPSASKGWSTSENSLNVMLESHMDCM

- Kd: ~2000 nM
B1: TLK2 (protein)
chain: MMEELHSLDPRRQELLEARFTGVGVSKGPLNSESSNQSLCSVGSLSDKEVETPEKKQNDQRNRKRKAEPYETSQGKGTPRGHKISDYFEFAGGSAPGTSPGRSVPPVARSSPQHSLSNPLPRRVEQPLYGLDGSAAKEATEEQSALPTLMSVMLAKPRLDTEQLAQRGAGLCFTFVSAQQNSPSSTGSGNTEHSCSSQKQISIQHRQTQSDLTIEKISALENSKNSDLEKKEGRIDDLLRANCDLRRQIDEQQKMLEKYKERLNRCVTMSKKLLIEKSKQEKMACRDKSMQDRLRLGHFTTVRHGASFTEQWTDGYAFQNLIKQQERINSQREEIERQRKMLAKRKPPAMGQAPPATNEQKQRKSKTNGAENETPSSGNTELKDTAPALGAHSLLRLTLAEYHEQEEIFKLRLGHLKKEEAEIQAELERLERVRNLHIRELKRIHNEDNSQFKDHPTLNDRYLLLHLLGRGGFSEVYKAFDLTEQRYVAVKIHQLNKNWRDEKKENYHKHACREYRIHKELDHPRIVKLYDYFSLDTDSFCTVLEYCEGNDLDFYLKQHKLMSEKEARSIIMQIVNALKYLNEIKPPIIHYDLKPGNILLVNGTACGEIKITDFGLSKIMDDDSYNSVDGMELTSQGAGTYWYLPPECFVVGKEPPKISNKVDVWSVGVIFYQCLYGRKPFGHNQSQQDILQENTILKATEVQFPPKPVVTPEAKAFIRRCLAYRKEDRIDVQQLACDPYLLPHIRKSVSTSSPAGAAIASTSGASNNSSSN
